Data taken from the supplement of paper PMC12764529.
± gives the half width of the 95% confidence interval.

Columns and labels:
[1] = folding stability dG unfold from chymotrypsin proteolysis; higher = more stable
Procedure, shortened: (§1)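 Only designs with AlphaFold2 dimer inter-PAE above 15 were retained; each was a mini-protein under 80 residues with no cysteine, in a PA-tagged cDNA display construct. After digestion with trypsin and chymotrypsin and sequencing, K50 was inferred by Bayesian fitting of counts, and unfolding free energy was derived per protease or combined against a sequence-predicted unfolded-state K50 and a shared folded-state K50.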

[2] = folding stability dG unfold from trypsin proteolysis; higher = more stable
Procedure, shortened: as §1

[3] = folding stability dG unfold (combined trypsin and chymotrypsin); higher = more stable
Procedure, shortened: as §1

| Sequence | folding stability dG unfold [1] [kcal/mol] | folding stability dG unfold [2] [kcal/mol] | folding stability dG unfold [3] [kcal/mol] |
| --- | --- | --- | --- |
| SAGGSAGGSAGMKELEITIIDKKTGKPLKVKVTLVEVDGKLYLVIEVYKNGKPLETYVLPSAGGSAGGSAGG [r11_631_TrROS_Hall] | 3.2 ± 0.072 | 2.29 ± 0.12 | 3 ± 0.18 |
| SAGGSAGGSAGLEIKIPNGNKTITVEKTKDYYKATIYFPETGEKVEFTFPPNVSLSLLDISAGGSAGGSAGG [r11_772_TrMRF] | 1.12 ± 0.073 | 1.98 ± 0.11 | 1.62 ± 0.18 |
| SAGGSAGGSAGGGKKVKVIIAADKPEEAEKAIEKLEKETDLPLEDVIVIPREEAEKLGLASAGGSAGGSAGG [r7_84_TrMRF] | -0.574 ± 0.14 | -1.27 ± 0.82 | -0.553 ± 0.47 |
| SAGGSFHDLAKELAKKRGLKKVSINMHPEDNSMNINIQNPEKGRPVQGNIPMEDMTPETVLDQIENILESAG [r5_896_TrROS] | 0.297 ± 0.28 | -1.04 ± 0.69 | -0.0716 ± 0.24 |
| SAGGSAGGGDLVVYRLEVRRFEPGTGRLVETRSRTVVVPKEDLPELLERIPPGYEVLRIEAFPESAGGSAGG [r6_776_TrMRF] | 0.361 ± 0.16 | 0.636 ± 0.067 | 0.494 ± 0.11 |
| SAGGEKTTLTLTLTLTLPPVTTVTYDPETGELRVETRTTTLTLTITVTADSPEEAERALRELLKKLGLSAGG [r13_35_TrROS_Hall] | 6.41 ± 0.27 | 4.4 ± 0.17 | > 6 |
| SKGTFMAMMPLDEIKEIVENFAKQGWNIKIKPKSIQPFPFPHNDEDGEPEPYPMVMVEVEIKIVPPGDPPSA [r9_991_TrROS] | 1.89 ± 0.086 | 1.33 ± 0.024 | 1.64 ± 0.097 |
| SAGGSAWIWITYQFPPGGTLEQAKEQIVNYLQRLFGWKIEIPDIEVEREGNNWTVTFPIKIEPLPGSAGGSA [r15_105_TrROS] | 4.4 ± 0.098 | 3.7 ± 0.16 | 4.18 ± 0.24 |
| SAGGSAGGSAGMTITKTEDGTYRLTLTVTETLPNGSTVTRTVTLTVPLEDAEEILAALPPSAGGSAGGSAGG [r11_505_TrROS_Hall] | 2.87 ± 0.032 | 2.52 ± 0.11 | 2.72 ± 0.089 |
| SAGGVVYYATFTIYDPKRKLPNGELAYEETPIYKKFDPKEIEKFIKELKDKLKKEGRKIKAEITKVLSAGGS [r8_10_JUSTAS] | 1.77 ± 0.29 | 1.28 ± 0.15 | 1.45 ± 0.4 |
| SAGEPEKVTITLVDEETGVVITIEIDKETKKITITVESEEERERARELAERLAKELEEAGIKVEILPPSAGG [r19_354_TrROS_Hall] | 2.26 ± 0.18 | 2.91 ± 0.14 | 2.73 ± 0.16 |
| SAGKPKKKKRTITIPIEHNPNNGNFTIKIRWPGRPVTVPFPGDDPEEMLDNMLNELENRLGWPIDEVEISAG [r5_251_TrROS] | -0.116 ± 0.27 | 0.932 ± 0.069 | 0.429 ± 0.23 |
| SAGGSAFEEVKKKYPNAKWEKIGDEGDTAVYRLTFPGGEKILITVPTLPETDEPVVEVTYVPKGEESAGGSA [r15_547_JUSTAS] | 2.842 ± 0.017 | 2.71 ± 0.093 | 2.82 ± 0.059 |
| SAGGSASPVLTTVTFPGSPEELEAYAAEVRAAGTLLSVSFSPSPDPSYYTITLQVRAPDGTYFTAESAGGSA [r15_177_JUSTAS] | 1.55 ± 0.083 | 1.14 ± 0.03 | 1.39 ± 0.061 |
| SAGGSAGGSAGKWKTITILIPNMPVEEIADRIMDKFGPGIRITEITPNKPGWFWITIIVRSAGGSAGGSAGG [r11_580_TrROS] | 3.823 ± 0.037 | 3.29 ± 0.075 | 3.62 ± 0.069 |
| SAGGARREIVIEIEADTLEEALAAAREALAALEDPEDLTVTIVVRLPPPPPPPRPRRVRLDGEEVELRSAGG [r13_718_TrROS_Hall] | 1.32 ± 0.19 | -0.384 ± 0.75 | 1.01 ± 0.22 |
| SAGGSAGGSAPNMDWVMIPIRVPPGEPPKVKITFPDGPTREFDPGRWVWIWFPPGDPMKIEPESAGGSAGGS [r12_553_TrROS] | 1.87 ± 0.13 | 1.04 ± 0.035 | 1.54 ± 0.15 |
| SAGGMEEIEVEFEFTLPDGRTLRLTVRVRRFDGGIVVEVDVGGEEEEEREFMEEVAREIAERIAEEESAGGS [r8_416_TrMRF] | 4.51 ± 0.11 | 2.92 ± 0.07 | 4.12 ± 0.093 |
| SAGGSERTIMIPVEPGMSPEQIADEIKAILRELGPGRPIEIDDVHPGGWVKIKINNKPIKIHIMWPSAGGSA [r2_102_TrROS] | 1.3 ± 0.081 | 1.31 ± 0.038 | 1.32 ± 0.1 |
| SAGGMKLTVEIEYDEETEEVTIRIRNEETGEEIEITLSKEEVEKLLEALEKNPEKSIEEALLEALKESAGGS [r8_484_TrROS_Hall] | 2.33 ± 0.11 | 2.58 ± 0.23 | 2.43 ± 0.25 |
| SAGGGMKLTITVTNADGSTTTETLTLGDLEKALEFLESDPTASLASIEIKPVPDTSEVEMNVSLTVPASAGG [r13_796_JUSTAS] | 1.55 ± 0.035 | 1.29 ± 0.056 | 1.47 ± 0.071 |
